Laboratory results from patent US20110053163A1, “Biomarker” (BIOVATOR TECHNOLOGIES AB, priority 2007, published 2011).

Key:
[1] = test system: MonoMac-6 cells; assay: Cytokine Profile Assay (CPA): neopterin production by stimulated MonoMac-6 cells, ELISA; format: cell-based, human; details: with IFN-γ 100 U/ml
Description: (§1) The instructions of the manufacturers were followed. All these tests are enzyme immunoassays (EIA:s). The principle is that microtiter plate wells are labelled with a cytokine specific capture antibody. If cytokine is present in the samples added to the wells it will be captured to the bottom of the well. […] The reaction is thereafter measured as colour developed after addition of a substrate for the enzyme. The values for the test wells are compared with a standard curve obtained by adding a series of known amounts of cytokine. The values obtained for control wells with no substance added are used as background values for cytokine levels.
(§2) The myelomonocytic cell line MonoMac-6 (obtained from DSMZ, accession number ACC 124, Prof. H. W. L. Ziegler-Heitbrock, Inst. For Immunology, University of Munich, Munich) was cultured in cell culture flasks (Corning). Cells were cultured in RPMI 1640 medium (Gibco BRL), containing 20 mM HEPES and L-glutamine and supplemented with 10% heat-inactivated foetal bovine serum (Gibco BRL), penicillin (100 U/mL; Sigma-Aldrich), streptomycin (100 μg/mL; Sigma-Aldrich), sodium pyruvate (1.0 mM;Gibco BRL), human insulin (9 μg/mL; Gibco BRL) and non-essential amino acids (Gibco BRL) or cultured in Panserin 411 (Pan Biotech) supplemented with penicillin (100 U/mL), streptomycin (100 μg/mL).
The cells were split approximately 1:3 the day before stimulation. The stimulation procedure was performed in three steps. The first step was pre-dilution of test substances, to double the final concentration, in cell culture medium. Furthermore, Interferon-γ (IFN-γ) (100 U, PreproTech) was added in the cell culture media for 24 or 48 hours during stimulation of cells with test substances. The number of cells was then determined by trypan blue exclusion and the cells were diluted to twice the final test concentration (2×10^6 cells/mL) if not otherwise indicated and 100 μl of cell suspension was added per well in 96 well tissue culture plates (Corning). Finally, a 100 μl of pre-diluted test substance (triplicate cultures) was added to the tissue culture plates. […] The stimulated cells were cultured at 37° C., 5% CO2, for 24 or 48 hours. The cell suspension was transferred to new cell culture plates and stored at −20° C. until analyzed. Thereafter the cell suspension was analyzed for presence of neopterin and IL-10 by ELISA (IBL-Hamburg) following the manufacturers instructions.

[2] = test system: MM6-cells; assay: CPA: IL-10 levels of stimulated MM6 cells, ELISA; format: cell-based, human; details: 25-200 μg/ml; 48 hours; with IFN-γ 100 U/ml
Description: as §1, §2
The cells were split approximately 1:3 the day before stimulation. The stimulation procedure was performed in three steps. The first step was pre-dilution of test substances, to double the final concentration, in cell culture medium. […] The number of cells was then determined by trypan blue exclusion and the cells were diluted to twice the final test concentration (2×10^6 cells/mL) if not otherwise indicated and 100 μl of cell suspension was added per well in 96 well tissue culture plates (Corning). […] The cell suspension was transferred to new cell culture plates and stored at −20° C. until analyzed. Thereafter the cell suspension was analyzed for presence of neopterin and IL-10 by ELISA (IBL-Hamburg) following the manufacturers instructions.

[3] = serum free Panserin media, 48 hrs

B1: Gal d 2: native allergen component from Phadia (Ovalbumin, Egg white) (protein, UniProt P01012 2-386, looked up)
Ovalbumin: GSIGAASMEFCFDVFKELKVHHANENIFYCPIAIMSALAMVYLGAKDSTRTQINKVVRFDKLPGFGDSIEAQCGTSVNVHSSLRDILNQITKPNDVYSFSLASRLYAEERYPILPEYLQCVKELYRGGLEPINFQTAADQARELINSWVESQTNGIIRNVLQPSSVDSQTAMVLVNAIVFKGLWEKAFKDEDTQAMPFRVTEQESKPVQMMYQIGLFRVASMASEKMKILELPFASGTMSMLVLLPDEVSGLEQLESIINFEKLTEWTSSNVMEERKIKVYLPRMKMEEKYNLTSVLMAMGITDVFSSSANLSGISSAESLKISQAVHAAHAEINEAGREVVGSAEAGVDAASVSEEFRADHPFLFCIKHIATNAVLFFGRCVSP
neopterin response (in words) [1, 3]: increased in a dose dependent manner
IL-10 levels (in words) [2]: induced increased IL-10 levels in a dose dependent manner

B2: Alt a 1: native allergen component from Phadia (Alternaria) (protein, UniProt P79085 19-157, looked up)
Major allergen Alt a 1: APLESRQDTASCPVTTEGDYVWKISEFYGRKPEGTYYNSLGFNIKATNGGTLDFTCSAQADKLEDHKWYSCGENSFMDFSFDSDRSGLLLKQKVSDDITYVATATLPNYCRAGGNGPKDFVCQGVADAYITLVTLPKSS
neopterin response (in words) ([1]; proteins, RPMI+10% FCS, 24 hrs, over the tested concentrations): increased in a dose dependent manner
neopterin response (in words) ([1]; serum free Panserin media, 24 hrs): increased in a dose dependent manner
neopterin response (in words) [1, 3]: increased in a dose dependent manner
IL-10 levels (in words) [2]: induced increased IL-10 levels in a dose dependent manner

B3: Der p 1: allergenic protein tested for IL-10 induction (protein, UniProt P08176 99-320, looked up)
Peptidase 1: TNACSINGNAPAEIDLRQMRTVTPIRMQGGCGSCWAFSGVAATESAYLAYRNQSLDLAEQELVDCASQHGCHGDTIPRGIEYIQHNGVVQESYYRYVAREQSCRRPNAQRFGISNYCQIYPPNVNKIREALAQTHSAIAVIIGIKDLDAFRHYDGRTIIQRDNGYQPNYHAVNIVGYSNAQGVDYWIVRNSWDTNWGDNGYGYFAANIDLMMIEEYPYVVIL
IL-10 levels (in words) [2]: induced increased IL-10 levels in a dose dependent manner

B4: Gal d 3: native allergen component from Phadia (Conalbumin, Egg, white) (protein, UniProt P02789 20-705, looked up)
Ovotransferrin: APPKSVIRWCTISSPEEKKCNNLRDLTQQERISLTCVQKATYLDCIKAIANNEADAISLDGGQAFEAGLAPYKLKPIAAEVYEHTEGSTTSYYAVAVVKKGTEFTVNDLQGKTSCHTGLGRSAGWNIPIGTLLHRGAIEWEGIESGSVEQAVAKFFSASCVPGATIEQKLCRQCKGDPKTKCARNAPYSGYSGAFHCLKDGKGDVAFVKHTTVNENAPDQKDEYELLCLDGSRQPVDNYKTCNWARVAAHAVVARDDNKVEDIWSFLSKAQSDFGVDTKSDFHLFGPPGKKDPVLKDLLFKDSAIMLKRVPSLMDSQLYLGFEYYSAIQSMRKDQLTPSPRENRIQWCAVGKDEKSKCDRWSVVSNGDVECTVVDETKDCIIKIMKGEADAVALDGGLVYTAGVCGLVPVMAERYDDESQCSKTDERPASYFAVAVARKDSNVNWNNLKGKKSCHTAVGRTAGWVIPMGLIHNRTGTCNFDEYFSEGCAPGSPPNSRLCQLCQGSGGIPPEKCVASSHEKYFGYTGALRCLVEKGDVAFIQHSTVEENTGGKNKADWAKNLQMDDFELLCTDGRRANVMDYRECNLAEVPTHAVVVRPEKANKIRDLLERQEKRFGVNGSEKSKFMMFESQNKDLLFKDLTKCLFKVREGTTYKEFLGDKFYTVISSLKTCNPSDILQMCSFLEGK
neopterin response (in words) [1, 3]: increased in a dose dependent manner
